Results taken from the supplement of paper PMC9170038.

Tested on: MS2 coat protein
Test: apparent KD of MS2 coat protein; designed switch direction (-1 OFF switch, 1 ON switch): -1; higher = weaker reporter binding
How it was run: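 Designed RNA switches with common flanks were transcribed on Illumina chips by stalled E. coli RNA polymerase and titrated with SNAP-549-labelled MS2 coat protein, from 0.7 or 1.5 nM doubling to 3 µM, in Tris-HCl pH 7.5 buffer with KCl, MgCl2, BSA, DTT, tRNA and Tween-20. Steps lasted 0.8–1.5 h (lowest) to 10–20 min (highest). Titrations ran without input, with 200 uM small-molecule ligand, or with an oligonucleotide input. Normalised cluster fluorescence was curve-fitted, and apparent KD is the per-design median over clusters.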

[1] = input ligand: microRNA oligo, concentration not stated
[2] = Eterna round: R95, input ligand: FMN 200 uM
[3] = Eterna round: R95, input ligand: microRNA oligo, concentration not stated
[4] = Eterna round: R95, input ligand: none

Sequence: AGUACUAUCACGAAAGUGAUAGUACAACGAGCUUGUGAAACAUGAGGAUCACCCAUGUCCUCAUGAGUUCGUCUUAU [JL turnoff v2 67] (Eterna round: R96, puzzle: Sensor v2, turn-off variant 2)
- apparent KD of MS2 coat protein (input ligand: FMN 200 uM): 13.9 nM
- apparent KD of MS2 coat protein [1]: 65.4 nM
- apparent KD of MS2 coat protein (input ligand: none): 15.7 nM

Sequence: AGUACUAUGCGAGCUGACUUGCGUAGUGCAGCAGGUGUUACAUGAGGAUCACCCAUGUCCUCAUUUGCUCGUCUUAA [Mat - Sensor v3 - Turn-off var 2 - D7] (puzzle: Sensor v3, turn-off variant 2)
- apparent KD of MS2 coat protein [2]: 267 nM
- apparent KD of MS2 coat protein [3]: 91.8 nM
- apparent KD of MS2 coat protein [4]: 293 nM

Sequence: AGUACUGACACGUUGGUGUUAGUACCAUAAGCUUGUGAUACAUGAGGAUCACCCAUGUCCUCAUAAGCUCGUCUUAU [salish99_TOv2_r2_096] (puzzle: Sensor v3, turn-off variant 2)
- apparent KD of MS2 coat protein [2]: 27.4 nM
- apparent KD of MS2 coat protein [3]: 484 nM
- apparent KD of MS2 coat protein [4]: 26 nM

Sequence: AGUACUGAGCAGGAUAUAUACAGGAUGCCCUCUGUAGAAGGGCUAACAUGAGGAUCACCCAUGUCCUAUAUGGC [Eternabot (L2) Solution 56] (Eterna round: R97, puzzle: Exclusion 6)
- apparent KD of MS2 coat protein (input ligand: FMN 200 uM): 39 nM
- apparent KD of MS2 coat protein (input ligand: none): 49.1 nM

Sequence: AGUACUUACACGAAAGUGUAAGUACAAUAAGCUUGUGGAACAUGAGGAUCACCCAUGUCCUCAUAAGCUCGUCUUAU [Mat - Sensor v3 - Turn-off var 2 - D28] (puzzle: Sensor v3, turn-off variant 2)
- apparent KD of MS2 coat protein [2]: 14.5 nM
- apparent KD of MS2 coat protein [3]: 75.2 nM
- apparent KD of MS2 coat protein [4]: 14.3 nM

Sequence: AGUAGGUCUACCUUGGUGGAUCUGCAUUUAUGCAGGUGUACAUGAGGAUCACCCAUGUCCUCAUUUGCUCGUCUUAU [JL turnoff v2 99.27] (puzzle: Sensor v3, turn-off variant 2)
- apparent KD of MS2 coat protein [2]: 400 nM
- apparent KD of MS2 coat protein [3]: 501 nM
- apparent KD of MS2 coat protein [4]: 349 nM

Sequence: AGUAGUAGUAUCCGAUCCUACAUGAGGAUCACCCAUGUAGCUAGACGUGCACGCGAUGCUCGUCAGACUACCAGAUG [salish99_TOv1_r3_033] (puzzle: Sensor v3, turn-off variant 1)
- apparent KD of MS2 coat protein [2]: 195 nM
- apparent KD of MS2 coat protein [3]: 184 nM
- apparent KD of MS2 coat protein [4]: 253 nM

Sequence: AGUAGUAGUAUCCGAUCCUACAUGAGGAUCACCCAUGUAGCUAGACGUGCACGCGAUGCUCGUCAGACUGCCAGAUG [salish99_TOv1_r3_049] (puzzle: Sensor v3, turn-off variant 1)
- apparent KD of MS2 coat protein [2]: 95.4 nM
- apparent KD of MS2 coat protein [3]: 97.8 nM
- apparent KD of MS2 coat protein [4]: 128 nM

Sequence: AGUAGUAGUAUCCGAUCUUACAUGAGGAUCACCCAUGUAGCUAGACGUGCACGCGAUGCUCGUCAGACUACCAGAUG [salish99_TOv1_r3_051] (puzzle: Sensor v3, turn-off variant 1)
- apparent KD of MS2 coat protein [2]: 148 nM
- apparent KD of MS2 coat protein [3]: 230 nM
- apparent KD of MS2 coat protein [4]: 277 nM

Sequence: AGUAGUUCAGGAUAUGAUGUUAAAUACAUGAGGAUCACCCAUGUAGAUCCUGAAUUUACAUCAGAAGGGAAUAACU [JR_Ex5_Sub082] (Eterna round: R97, puzzle: Exclusion 5)
- apparent KD of MS2 coat protein (input ligand: FMN 200 uM): 91.7 nM
- apparent KD of MS2 coat protein (input ligand: none): 25.5 nM

Sequence: AGUAUGUCAGGAUAUCUCGGGUAGCCCACAACGACUACCGAAGAGAAGGGACAUGAGGAUCACCCAUGUACCAU [EX4 B.15] (Eterna round: R97, puzzle: Exclusion 4)
- apparent KD of MS2 coat protein (input ligand: FMN 200 uM): 29.9 nM
- apparent KD of MS2 coat protein (input ligand: none): 34.3 nM

Sequence: AGUCGAAAGAUCCACAUGGACAUGAGGAUCACCCAUGUGCAAGCCUUUUUCUCGUCACUAUCGUCAAAAGACGAUAG [Omei Mir Offv1 A6] (Eterna round: R97, puzzle: Sensor, turn-off variant 1)
- apparent KD of MS2 coat protein (input ligand: FMN 200 uM): 185 nM
- apparent KD of MS2 coat protein (input ligand: none): 234 nM

Sequence: AGUCGGCGAGGAUAUACAUGAGGAUCACCCAUGUAUGAUCCUAGACCUGUAGGUCCAUGUAGAAGGCGCUGACA [Exclusion 3 - Was a mod at one point v.3] (puzzle: Exclusion 3)
- apparent KD of MS2 coat protein [3]: 66.2 nM

Sequence: AGUGCGUAUGUGAGGAUAUGCUGGUCCUUGGAUCAGCAGAAGGCACAUGAGGAUCACCCAUGUGGUGUCGUACA [salish99_Bmod_Ex4_006] (puzzle: Brourd's mod of Exclusion 4)
- apparent KD of MS2 coat protein [3]: 320 nM

Sequence: AGUGCUAACACGAAAGUGUUAGUACAAUAAGCUUGUGAAACAUGAGGAUCACCCAUGUCCUCAUAAGCUCGUCUUAU [salish99_TOv2_r3_014] (puzzle: Sensor v3, turn-off variant 2)
- apparent KD of MS2 coat protein [2]: 17.8 nM
- apparent KD of MS2 coat protein [3]: 651 nM
- apparent KD of MS2 coat protein [4]: 17.7 nM

Sequence: AGUGCUGACACGUUGGUGUUAGUACCAUAAGCUUGUGAUACAUGAGGAUCACCCAUGUCCUCAUAAGCUCGUCUUAU [salish99_TOv2_r2_097] (puzzle: Sensor v3, turn-off variant 2)
- apparent KD of MS2 coat protein [2]: 28.6 nM
- apparent KD of MS2 coat protein [3]: 669 nM
- apparent KD of MS2 coat protein [4]: 26.8 nM

Sequence: AGUGCUGCAGGAUAUUCUAUUAAUUACAUGAGGAUCACCCAUGUGAAUGGACAAGGGUGUGAAGAAGGGUGGUACG [Omei Ex5 A17i] (Eterna round: R97, puzzle: Exclusion 5)
- apparent KD of MS2 coat protein (input ligand: FMN 200 uM): 262 nM
- apparent KD of MS2 coat protein (input ligand: none): 496 nM

Sequence: AGUGGUAGUAUCCGAUCCUACAUGAGGAUCACCCAUGUAGCUAGACGUGCACGCGAUGCUCGUCAGACUACCAGAUG [salish99_TOv1_r3_040] (puzzle: Sensor v3, turn-off variant 1)
- apparent KD of MS2 coat protein [2]: 16.5 nM
- apparent KD of MS2 coat protein [3]: 14.1 nM
- apparent KD of MS2 coat protein [4]: 18.1 nM

Sequence: AGUUGUAAAGAGGAUAUCCAUCCCGGCAUCCAUGGAGAAGGUUUAACAUGAGGAUCACCCAUGUCAUGAUCCUC [Eternabot (L2) Solution 3] (Eterna round: R97, puzzle: Exclusion 6)
- apparent KD of MS2 coat protein (input ligand: FMN 200 uM): 824 nM
- apparent KD of MS2 coat protein (input ligand: none): 692 nM

Sequence: AUAAAACGUGUAGGAUAUGCGUGGCGAAGCUAUGCAGAAGGACAUGAGGAUCACCCAUGUUCAAGCGUCUGCGUACAGAUGCUA [JL eng1 1.35 mod 6] (Eterna round: R96, puzzle: Exclusion NG 1)
- apparent KD of MS2 coat protein (input ligand: FMN 200 uM): 16.9 nM
- apparent KD of MS2 coat protein [1]: 14.1 nM
- apparent KD of MS2 coat protein (input ligand: none): 14.5 nM

Sequence: AUAAAGAAUGUUAGGAUAUUGGUGAAUAGGCUGACUAAGAAGGAACAUGAGGAUCACCCAUGUAACAUGGAAAA [Tiinzaesqu] (puzzle: Brourd's mod of Exclusion 4)
- apparent KD of MS2 coat protein [2]: 68.8 nM
- apparent KD of MS2 coat protein [3]: 24.5 nM
- apparent KD of MS2 coat protein [4]: 33.6 nM

Sequence: AUAAAUCAUGUAGGAUAUGCGUGGCAAAGCUAUGCAGAAGGACAUGAGGAUCACCCAUGUCUUUCCGUCUGAGUACAGACGGGA [Mat - Exclusion NG 1 - Mod of JL - D47] (Eterna round: R96, puzzle: Exclusion NG 1)
- apparent KD of MS2 coat protein (input ligand: FMN 200 uM): 172 nM
- apparent KD of MS2 coat protein [1]: 21.1 nM
- apparent KD of MS2 coat protein (input ligand: none): 24.9 nM

Sequence: AUAAAUCAUGUAGGAUAUGCGUGGCGAAGCUAUGCAGAAGGACAUGAGGAUCACCCAUGUGCUUGCGUCCGCGUACGGAUGCAA [Mat - Exclusion NG 1 - Mod of JL - D69] (Eterna round: R96, puzzle: Exclusion NG 1)
- apparent KD of MS2 coat protein (input ligand: FMN 200 uM): 65.2 nM
- apparent KD of MS2 coat protein [1]: 155 nM
- apparent KD of MS2 coat protein (input ligand: none): 231 nM

Sequence: AUAACAUGCUGGUGAUCAUACAUGAGGAUCACCCAUGUAACAAGCUUUUUGCUCGUCUUAUAAUUUAAGAUCACCAG [Stov1/7-A2] (Eterna round: R97, puzzle: Sensor, turn-off variant 1)
- apparent KD of MS2 coat protein (input ligand: FMN 200 uM): 17.4 nM
- apparent KD of MS2 coat protein (input ligand: none): 18.1 nM

Sequence: AUAAUGUCAGGAUAUACUAAUGAUGAAUGAUCAGACAUUAUGUAGAAGGGACAUGAGGAUCACCCAUGUAAUAU [EX4 #3] (Eterna round: R97, puzzle: Exclusion 4)
- apparent KD of MS2 coat protein (input ligand: FMN 200 uM): 35.5 nM
- apparent KD of MS2 coat protein (input ligand: none): 29.1 nM

Sequence: AUAAUGUCAGGAUAUCAGUCGACUAGCUUCGGCUAGUCGACUGAGAAGGGACAUGAGGAUCACCCAUGUGUUUC [E4/14-A1] (Eterna round: R97, puzzle: Exclusion 4)
- apparent KD of MS2 coat protein (input ligand: FMN 200 uM): 2390 nM
- apparent KD of MS2 coat protein (input ligand: none): 505 nM

Sequence: AUAAUGUGAGGAUAUCAGUCGUACAGCGAUAGCUGUACGACUGAGAAGGCACAUGAGGAUCACCCAUGUGGUCA [E4/5-A4] (Eterna round: R97, puzzle: Exclusion 4)
- apparent KD of MS2 coat protein (input ligand: FMN 200 uM): 162 nM
- apparent KD of MS2 coat protein (input ligand: none): 562 nM

Sequence: AUAAUUUAAGUGAGGAUAUACCUAUGGAAACAUAGGUAGAAGGCACAUGAGGAUCACCCAUGUUCCUAUACAUA [Fiskers BMX 4 - 3] (puzzle: Brourd's mod of Exclusion 4)
- apparent KD of MS2 coat protein [2]: 22.8 nM
- apparent KD of MS2 coat protein [3]: 12 nM
- apparent KD of MS2 coat protein [4]: 13.1 nM

Sequence: AUACACUUAGUGAGGAUAUCGUUUUCUUUACGGAUCGAGAAGGCACAUGAGGAUCACCCAUGUUUGACGUGAAU [JR_BMOE4_Sub095] (puzzle: Brourd's mod of Exclusion 4)
- apparent KD of MS2 coat protein [3]: 20.5 nM

Sequence: AUAGAGUCAGGAUAUACAGGUGGAGGAGAGCAGCGUAAGGAGUAGAAGGGACAUGAGGAUCACCCAUGUAAGUG [JR_Exclu4_Sub060] (puzzle: Exclusion 4)
- apparent KD of MS2 coat protein [2]: 52.5 nM
- apparent KD of MS2 coat protein [3]: 55.1 nM
- apparent KD of MS2 coat protein [4]: 81.2 nM

Sequence: AUAGAGUCAGGAUAUUGCGCAGUGGACAUGAGGAUCACCCAUGUGAACUUCGUACCGGGCCAAGAAGGGACGGAAA [Onedra] (puzzle: Exclusion 5)
- apparent KD of MS2 coat protein [2]: 96.6 nM
- apparent KD of MS2 coat protein [3]: 21.5 nM
- apparent KD of MS2 coat protein [4]: 31.1 nM

Sequence: AUAGAUAUAGGAUAUGAGGUAUAGUACAUGAGGAUCACCCAUGUUGAUCGCAUGAACGAUUUAGAAGGAUACCUAA [Eternabot (L2) Solution 83] (Eterna round: R97, puzzle: Exclusion 5)
- apparent KD of MS2 coat protein (input ligand: FMN 200 uM): 643 nM
- apparent KD of MS2 coat protein (input ligand: none): 1310 nM

Sequence: AUAGGCUGUUUUGUUCGUCACAUGAGGAUCACCCAUGUCUCGAGACUGUGCUUACGUUGCGUGUAUAGUCCGGGUAU [Eternabot (L1) Solution 5] (Eterna round: R97, puzzle: Sensor, turn-off variant 1)
- apparent KD of MS2 coat protein (input ligand: FMN 200 uM): 34.1 nM
- apparent KD of MS2 coat protein (input ligand: none): 36.3 nM
